Measurements published in patent US20230012273A1 (Boehringer Ingelheim, published 2023).

T1: cynomolgus SIRPα extracellular domain + His-tag (EGM_02252) (cynomolgus monkey)
T1 construct: also called CySIRPα EGM_02252; cynoSIRPα
T1 chain: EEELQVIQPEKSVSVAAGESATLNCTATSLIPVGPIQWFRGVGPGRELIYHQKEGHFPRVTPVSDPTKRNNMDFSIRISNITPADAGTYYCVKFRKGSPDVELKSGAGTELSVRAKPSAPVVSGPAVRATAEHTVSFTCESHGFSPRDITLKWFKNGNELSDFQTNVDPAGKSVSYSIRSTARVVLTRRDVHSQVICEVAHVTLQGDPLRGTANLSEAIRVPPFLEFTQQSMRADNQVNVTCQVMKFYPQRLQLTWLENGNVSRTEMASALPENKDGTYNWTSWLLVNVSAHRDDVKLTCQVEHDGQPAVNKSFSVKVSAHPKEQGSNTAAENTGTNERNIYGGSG

T2: cynomolgus SIRPα extracellular domain + His-tag (XP_015313155) (cynomolgus monkey)
T2 construct: also called CySIRPα XP_015313155; cynoSIRPα
T2 chain: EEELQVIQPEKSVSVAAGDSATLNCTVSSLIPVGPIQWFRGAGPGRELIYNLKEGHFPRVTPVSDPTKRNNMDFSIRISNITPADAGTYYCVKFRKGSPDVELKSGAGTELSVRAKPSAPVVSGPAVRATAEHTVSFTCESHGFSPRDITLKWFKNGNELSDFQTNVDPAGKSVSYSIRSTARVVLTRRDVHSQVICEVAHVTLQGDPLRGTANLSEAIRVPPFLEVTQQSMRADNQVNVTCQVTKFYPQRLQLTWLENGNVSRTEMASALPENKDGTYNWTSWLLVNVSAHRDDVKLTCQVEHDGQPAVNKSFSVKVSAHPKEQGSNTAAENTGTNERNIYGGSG

T3: cynomolgus SIRPβ1 extracellular domain + His-tag (XP_005568598) (cynomolgus monkey)
T3 construct: also called Cyno SIRPβ1; cynoSIRPβ1
T3 chain: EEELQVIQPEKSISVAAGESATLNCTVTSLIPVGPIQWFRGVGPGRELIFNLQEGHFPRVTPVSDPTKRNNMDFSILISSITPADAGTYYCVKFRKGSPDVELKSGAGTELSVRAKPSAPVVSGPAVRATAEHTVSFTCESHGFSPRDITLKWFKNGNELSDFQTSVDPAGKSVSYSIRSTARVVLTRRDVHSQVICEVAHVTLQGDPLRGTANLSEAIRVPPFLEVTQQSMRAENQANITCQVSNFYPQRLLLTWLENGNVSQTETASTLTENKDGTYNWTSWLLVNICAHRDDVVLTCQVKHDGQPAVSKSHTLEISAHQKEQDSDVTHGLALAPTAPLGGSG

T4: cynomolgus SIRPβ1v3 extracellular domain + His-tag (XP_005568593) (cynomolgus monkey)
T4 construct: also called Cyno SIRPβ1v3; cynoSIRPβ1v3
T4 chain: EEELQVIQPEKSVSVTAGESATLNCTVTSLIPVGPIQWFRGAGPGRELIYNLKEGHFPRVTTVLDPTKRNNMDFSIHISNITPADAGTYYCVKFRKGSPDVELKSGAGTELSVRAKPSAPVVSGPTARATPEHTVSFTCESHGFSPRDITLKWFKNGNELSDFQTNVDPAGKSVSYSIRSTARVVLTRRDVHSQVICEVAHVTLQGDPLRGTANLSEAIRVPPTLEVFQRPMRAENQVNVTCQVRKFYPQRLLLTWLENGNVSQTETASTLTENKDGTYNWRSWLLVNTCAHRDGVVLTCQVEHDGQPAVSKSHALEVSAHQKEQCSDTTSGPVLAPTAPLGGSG

T5: cynomolgus SIRPγ extracellular domain + His-tag (XP_005568591) (cynomolgus monkey, UniProt Q9P1W8 29-359 (human entry))
T5 construct: also called Cyno SIRPγ; cynoSIRPγ
T5 chain: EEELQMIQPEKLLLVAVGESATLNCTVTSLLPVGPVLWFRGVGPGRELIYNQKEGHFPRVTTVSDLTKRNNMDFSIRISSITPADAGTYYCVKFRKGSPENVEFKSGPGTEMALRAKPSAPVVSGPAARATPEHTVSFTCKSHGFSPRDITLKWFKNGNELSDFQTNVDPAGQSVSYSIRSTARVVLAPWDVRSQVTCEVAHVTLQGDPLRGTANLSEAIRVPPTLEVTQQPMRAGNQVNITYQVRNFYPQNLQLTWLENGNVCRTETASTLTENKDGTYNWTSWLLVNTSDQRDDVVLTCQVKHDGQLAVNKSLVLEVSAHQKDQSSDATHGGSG


Columns and labels:
Experiment in all cases: SPR, Ab captured, ECD-His analyte
[1] = target: T1, cynomolgus SIRPα extracellular domain + …
Method: (§1) The binding affinity of anti-SIRPα antibodies to the various SIRPα analytes is determined by surface plasmon resonance (SPR) using a ProteOn XPR36 (Bio-Rad). The running buffer for this experiment and all dilutions (except where stated) are done in 1×HBS-EP+. […] The sensorchip is deactivated with 1M ethanolamine HCl for 420 sec at a flowrate of 10 μl/min.
(§2) The analyte is injected over the captured antibody for 300 sec at a flowrate of 30 μl/min. The dissociation is done for 600 sec. Two-fold serial dilutions of each SIRP protein (Extracellular Domain+His-Tag) are injected as analyte with the highest concentrations indicated in table 36 below.

[2] = target: T2, cynomolgus SIRPα extracellular domain + …
Method: as §1, §2

[3] = target: T3, cynomolgus SIRPβ1 extracellular domain …
Method: as §1, §2

[4] = target: T4, cynomolgus SIRPβ1v3 extracellular …
Method: as §1, §2

[5] = target: T5, cynomolgus SIRPγ extracellular domain + …
Method: as §1, §2

[6] = target: T6, human SIRPβ1 extracellular domain + His-tag (NP_006056.2) (human, UniProt O00241 30-371)
T6 construct: also called hSIRPβ1; HuSIRPβ1
Method: as §1, §2

[7] = target: T7, human SIRPβL/SIRPβ1v3 extracellular domain + His-tag (NP_001129316.1) (human, UniProt Q5TFQ8 30-371)
T7 construct: also called hSIRPβ1v3; HuSIRPβ1v3
Method: as §1, §2

[8] = target: T8, human SIRPγ extracellular domain + His-tag (NP_061026.2) (human, UniProt Q9P1W8 29-360)
T8 construct: also called hSIRPγ; HuSIRPγ
Method: as §1, §2

T7 sequence (Q5TFQ8 other isoform, or with tags, fused parts or gaps): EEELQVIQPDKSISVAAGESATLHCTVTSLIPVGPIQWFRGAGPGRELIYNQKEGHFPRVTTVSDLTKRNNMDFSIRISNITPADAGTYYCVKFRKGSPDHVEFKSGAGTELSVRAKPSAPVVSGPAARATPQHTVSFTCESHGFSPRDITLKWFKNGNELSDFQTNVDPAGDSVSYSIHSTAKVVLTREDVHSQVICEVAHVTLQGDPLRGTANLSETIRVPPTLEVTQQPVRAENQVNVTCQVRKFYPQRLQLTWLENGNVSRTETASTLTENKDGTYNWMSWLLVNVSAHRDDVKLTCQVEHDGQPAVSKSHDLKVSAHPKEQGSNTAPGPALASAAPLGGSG
T6 sequence (O00241 other isoform, or with tags, fused parts or gaps): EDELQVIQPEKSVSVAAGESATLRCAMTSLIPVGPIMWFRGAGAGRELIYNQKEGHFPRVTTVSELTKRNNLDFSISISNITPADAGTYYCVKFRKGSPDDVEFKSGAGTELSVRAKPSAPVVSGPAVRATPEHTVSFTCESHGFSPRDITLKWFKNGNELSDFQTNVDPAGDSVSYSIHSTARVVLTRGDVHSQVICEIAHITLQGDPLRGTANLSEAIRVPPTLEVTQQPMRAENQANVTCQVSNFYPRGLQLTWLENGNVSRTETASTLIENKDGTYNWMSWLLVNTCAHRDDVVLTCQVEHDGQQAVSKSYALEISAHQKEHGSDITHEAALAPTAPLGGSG
T8 sequence (Q9P1W8 29-360): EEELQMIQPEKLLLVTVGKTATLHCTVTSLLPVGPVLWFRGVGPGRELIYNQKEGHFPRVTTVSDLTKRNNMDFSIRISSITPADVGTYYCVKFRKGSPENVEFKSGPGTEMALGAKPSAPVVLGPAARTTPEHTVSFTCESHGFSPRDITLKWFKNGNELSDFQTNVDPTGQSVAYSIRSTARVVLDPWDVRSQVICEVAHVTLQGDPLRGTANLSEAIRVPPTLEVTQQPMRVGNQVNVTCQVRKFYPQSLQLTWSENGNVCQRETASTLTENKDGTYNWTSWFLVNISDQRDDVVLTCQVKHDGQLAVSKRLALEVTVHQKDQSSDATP

Kd [1] | Kd [2] | binding result [3] | Kd [4] | binding result [5] | binding result [6] | binding result [7] | binding result [8] | Kd [6] | Binder
543 nM | 369 nM | no binding (tested: 1000 nM) | 557 nM | no binding (tested: 1000 nM) | no binding (tested: 1000 nM) | no binding (tested: 100 nM) | no binding (tested: 1000 nM) |  | Antibody A1 (antibody, human IgG1, kappa, L234A L235A, V domains shown, also called Antibody Al) VH: EVQLVESGGGLVQPGGSLRLSCAASGFTLSSYDMHWVRQAPGKGLEWVSAIGTAGDTYYTGSVKGRFTISRENAKNSLYLQMNSLRADDTAVYYCVRGGVWDDAFDIWGQGTMVTVSS VL: DIQMTQSPSSLSASVGDRVTITCRASQGINNYAAWFQQKPGKAPKSLIYTASSLHSGVPSKFSGSGSGTDFTLTISSLQPEDFATYYCQQYVSYPYTFGQGTKLEIKR
535 nM | 350 nM | no binding (tested: 1000 nM) | 449 nM | no binding (tested: 1000 nM) |  | no binding (tested: 100 nM) | no binding (tested: 1000 nM) | 69.6 nM | Antibody A8 (antibody, human IgG1, kappa, L234A L235A, V domains shown) VH: EVQLVESGGGLVQPGGSLRLSCAASGFTLSSYDMHWVRQAPGKGLEWVSAIGTAGDTYYTGSVKGRFTISRENAKNSLYLQMNSLRAGDTAVYYCVRGGVWDDAFDIWGQGTMVTVSS VL: DIQMTQSPSSLSASVGDRVTITCRASQGINNYAAWFQQKPGKAPKSLIYTASSLHSGVPSKFSGSGSGTDFTLTISSLQPEDFATYYCQQYVSYPYTFGQGTKLEIKR
227 nM | 156 nM | no binding (tested: 1000 nM) | 257 nM | no binding (tested: 1000 nM) |  | no binding (tested: 100 nM) | no binding (tested: 1000 nM) | 58.8 nM | Antibody A9 (antibody, human IgG1, kappa, L234A L235A, V domains shown) VH: EVQLVESGGGLVQPGGSLRLSCAASGFTLSSYDMHWVRQAPGKGLEWVSAIGTAGDTYYTGSVKGRFTISRENAKNSLYLQMNSLRADDTAVYYCVRGGVWDDAFDIWGQGTMVTVSS VL: DIQMTQSPSSLSASVGDRVTITCRASQDINNYLAWFQQKPGKAPKSLIYTASSLHSGVPSKFSGSGSGTDFTLTISSLQPEDFATYYCQQYVSYPYTFGQGTKLEIKR
249 nM | 182 nM | no binding (tested: 1000 nM) | 279 nM | no binding (tested: 1000 nM) |  | no binding (tested: 100 nM) | no binding (tested: 1000 nM) | 64.4 nM | Antibody A12 (antibody, human IgG1, kappa, L234A L235A, V domains shown) VH: EVQLVESGGGLVQPGGSLRLSCAASGFTLSSYDMHWVRQATGKGLEWVSAIGTAGDTYYTGSVKGRFTISRENAKNSLYLQMNSLRASDTAVYYCVRGGVWDDAFDIWGQGTMVTVSS VL: DIQMTQSPSSLSASVGDRVTITCRASQDINNYLAWFQQKPGKAPKSLIYTASSLHSGVPSKFSGSGSGTDFTLTISSLQPEDFATYYCQQYVSYPYTFGQGTKLEIKR
571 nM | 438 nM | no binding (tested: 1000 nM) | 564 nM | no binding (tested: 1000 nM) |  | no binding (tested: 100 nM) | no binding (tested: 1000 nM) | 70.3 nM | Antibody A3 (antibody, human IgG1, kappa, L234A L235A, V domains shown) VH: EVQLVESGGGLVQPGGSLRLSCAASGFTLSSYDMHWVRQATGKGLEWVSAIGTAGDTYYTGSVKGRFTISRENAKNSLYLQMNSLRASDTAVYYCVRGGVWDDAFDIWGQGTMVTVSS VL: DIQMTQSPSSLSASVGDRVTITCRASQGINNYAAWFQQKPGKAPKSLIYTASSLHSGVPSKFSGSGSGTDFTLTISSLQPEDFATYYCQQYVSYPYTFGQGTKLEIKR
584 nM | 424 nM | no binding (tested: 1000 nM) | 552 nM | no binding (tested: 1000 nM) |  | no binding (tested: 100 nM) | no binding (tested: 1000 nM) | 77.5 nM | Antibody A2 (antibody, human IgG1, kappa, L234A L235A, V domains shown) VH: EVQLVESGGGLVQPGGSLRLSCAASGFTLSSYDMHWVRQATGKGLEWVSAIGTAGDTYYTGSVKGRFTISRENAKNSLYLQMNSLRAADTAVYYCVRGGVWDDAFDIWGQGTMVTVSS VL: DIQMTQSPSSLSASVGDRVTITCRASQGINNYAAWFQQKPGKAPKSLIYTASSLHSGVPSKFSGSGSGTDFTLTISSLQPEDFATYYCQQYVSYPYTFGQGTKLEIKR
609 nM | 389 nM | no binding (tested: 1000 nM) | 494 nM | no binding (tested: 1000 nM) |  | no binding (tested: 100 nM) | no binding (tested: 1000 nM) | 72.2 nM | Antibody A7 (antibody, human IgG1, kappa, L234A L235A, V domains shown) VH: EVQLVESGGGLVQPGGSLRLSCAASGFTLSSYDMHWVRQATGKGLEWVSAIGTAGDTYYTGSVKGRFTISRENAKNSLYLQMNSLRAGDTAVYYCVRGGVWDDAFDIWGQGTMVTVSS VL: DIQMTQSPSSLSASVGDRVTITCRASQGINNYAAWFQQKPGKAPKSLIYTASSLHSGVPSKFSGSGSGTDFTLTISSLQPEDFATYYCQQYVSYPYTFGQGTKLEIKR
538 nM | 366 nM | no binding (tested: 1000 nM) | 469 nM | no binding (tested: 1000 nM) |  | no binding (tested: 100 nM) | no binding (tested: 1000 nM) | 65.1 nM | Antibody A6 (antibody, human IgG1, kappa, L234A L235A, V domains shown) VH: EVQLVESGGGLVQPGGSLRLSCAASGFTLSSYDMHWVRQAPGKGLEWVSAIGTAGDTYYTGSVKGRFTISRENAKNSLYLQMNSLRAEDTAVYYCVRGGVWDDAFDIWGQGTMVTVSS VL: DIQMTQSPSSLSASVGDRVTITCRASQGINNYAAWFQQKPGKAPKSLIYTASSLHSGVPSKFSGSGSGTDFTLTISSLQPEDFATYYCQQYVSYPYTFGQGTKLEIKR
